Assays:
[1] = molecular target: T1, human CD71 (transferrin receptor protein 1, TfR1) on human cell lines (human, UniProt P02786 1-760); assay: FACS on BxPC3 cells
T1 construct: whole, on cells; also called huCD71

[2] = molecular target: T1, human CD71 (transferrin receptor …); assay: FACS on FaDu cells
Method: (§1) In this study, the binding of the antibodies of the present disclosure to the indicated cell lines were performed using a standard FACS labelling method.

[3] = molecular target: T1, human CD71 (transferrin receptor …); assay: FACS on HT29 cells
Method: as §1

[4] = molecular target: T1, human CD71 (transferrin receptor …); assay: FACS on H292 cells
Method: as §1

[5] = molecular target: T1, human CD71 (transferrin receptor …); assay: FACS on H292 cells; remark: listed apart in the source
Method: In this study, the binding of the antibodies of the present disclosure to the indicated cell lines were performed using a standard FACS labelling method. […] These activatable antibodies include the light chain of the correspondingly named sequence listed above in Table C. The cells were labeled with the indicated test article at the indicated concentrations and subsequently detected with an Alexa Fluor 647 labeled goat anti-human IgG secondary antibody.

[6] = molecular target: T1, human CD71 (transferrin receptor …); assay: FACS on BxPC3 cells; remark: listed apart in the source
Method: as §1

[7] = molecular target: T1, human CD71 (transferrin receptor …); assay: FACS on DMS 79 cells
Method: (§2) In this study, the binding of the antibodies and ADCs of the present disclosure to the indicated cell lines were performed using a standard FACS labelling method.

[8] = molecular target: T1, human CD71 (transferrin receptor …); assay: FACS on HCC1806 cells
Method: as §1

[9] = molecular target: T1, human CD71 (transferrin receptor …); assay: FACS on DMS 153 cells
Method: as §2

[10] = molecular target: T1, human CD71 (transferrin receptor …); assay: FACS on MDA MB 231 cells
Method: as §1

[11] = molecular target: T1, human CD71 (transferrin receptor …); assay: FACS on MDA MB 231 cells; remark: listed apart in the source
Method: as §1

[12] = molecular target: T2, recombinant human CD71 protein (human, UniProt P02786 89-760); assay: ELISA, 1 µg/mL CD71 on nickel plates
T2 construct: also called recombinant CD71
T2 sequence (P02786 89-760 limits assumed): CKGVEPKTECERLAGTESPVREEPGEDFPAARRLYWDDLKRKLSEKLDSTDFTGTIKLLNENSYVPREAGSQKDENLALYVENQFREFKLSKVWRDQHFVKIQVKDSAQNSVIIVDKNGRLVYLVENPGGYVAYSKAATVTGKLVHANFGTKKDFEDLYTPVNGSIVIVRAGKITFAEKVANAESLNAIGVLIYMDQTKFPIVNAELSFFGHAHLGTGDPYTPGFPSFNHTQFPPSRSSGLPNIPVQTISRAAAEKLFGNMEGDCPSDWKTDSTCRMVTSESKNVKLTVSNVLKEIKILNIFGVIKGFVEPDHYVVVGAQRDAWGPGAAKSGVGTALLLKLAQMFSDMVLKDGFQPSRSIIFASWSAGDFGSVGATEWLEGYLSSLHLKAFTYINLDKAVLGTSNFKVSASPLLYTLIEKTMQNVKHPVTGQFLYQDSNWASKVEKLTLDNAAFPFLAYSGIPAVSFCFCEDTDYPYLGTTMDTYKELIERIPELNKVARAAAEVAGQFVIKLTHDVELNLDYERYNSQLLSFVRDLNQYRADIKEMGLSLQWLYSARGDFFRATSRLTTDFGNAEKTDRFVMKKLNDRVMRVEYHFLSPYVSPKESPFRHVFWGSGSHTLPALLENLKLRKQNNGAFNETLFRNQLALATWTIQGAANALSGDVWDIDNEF

[13] = molecular target: T2, recombinant human CD71 protein; assay: ELISA, 1 µg/mL recombinant human CD71
Method: (§3) The amount of bound antibody was detected by incubation and detection by goat anti-human antibody conjugated to horseradish peroxidase and Ultra TMB (Thermo Fisher Scientific) detection.

[14] = molecular target: T2, recombinant human CD71 protein; assay: ELISA, 1 µg/mL CD71 on copper or nickel plates
Method: as §3

[15] = molecular target: T2, recombinant human CD71 protein; assay: ELISA, 1 µg/mL recombinant human CD71 (second value)
Method: as §3

[16] = molecular target: T3, cynomolgus monkey CD71 on primary kidney epithelial cells (cynomolgus monkey, UniProt H9EXL1 1-760 (rhesus entry)); assay: FACS on cynomolgus monkey primary kidney epithelial cells
T3 construct: whole, on cells; also called cyno CD71
T3 sequence (chain, as listed by the source): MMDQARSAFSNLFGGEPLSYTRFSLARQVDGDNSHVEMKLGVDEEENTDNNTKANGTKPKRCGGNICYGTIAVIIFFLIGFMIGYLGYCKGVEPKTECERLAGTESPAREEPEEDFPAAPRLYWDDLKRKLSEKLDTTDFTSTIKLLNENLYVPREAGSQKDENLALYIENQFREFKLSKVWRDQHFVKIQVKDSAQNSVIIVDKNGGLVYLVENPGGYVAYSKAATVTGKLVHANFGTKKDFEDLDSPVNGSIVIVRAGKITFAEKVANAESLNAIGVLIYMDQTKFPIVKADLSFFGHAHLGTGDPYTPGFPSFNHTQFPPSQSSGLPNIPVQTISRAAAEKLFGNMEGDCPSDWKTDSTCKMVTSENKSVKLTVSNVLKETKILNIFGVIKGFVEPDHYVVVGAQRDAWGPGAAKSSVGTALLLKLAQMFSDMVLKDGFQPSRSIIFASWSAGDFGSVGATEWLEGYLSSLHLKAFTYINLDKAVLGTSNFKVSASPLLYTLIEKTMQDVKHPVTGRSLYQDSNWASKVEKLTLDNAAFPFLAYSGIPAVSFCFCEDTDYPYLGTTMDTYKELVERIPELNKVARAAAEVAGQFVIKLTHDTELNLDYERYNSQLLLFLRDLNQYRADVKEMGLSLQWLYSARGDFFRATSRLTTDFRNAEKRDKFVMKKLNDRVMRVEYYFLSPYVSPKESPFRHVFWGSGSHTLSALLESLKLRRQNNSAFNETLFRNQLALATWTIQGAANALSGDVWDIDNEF
Method: In this study, the binding of the antibody of the present disclosure to the cells were performed using a standard FACS labelling method.

recombinant mouse CD71 = recombinant mouse CD71 (mouse, UniProt Q62351 89-763, limits assumed); assay: ELISA, recombinant CD71 (1 µg/mL) on plates, anti-human IgG-HRP
Chain of recombinant mouse CD71 (Q62351 89-763 limits assumed): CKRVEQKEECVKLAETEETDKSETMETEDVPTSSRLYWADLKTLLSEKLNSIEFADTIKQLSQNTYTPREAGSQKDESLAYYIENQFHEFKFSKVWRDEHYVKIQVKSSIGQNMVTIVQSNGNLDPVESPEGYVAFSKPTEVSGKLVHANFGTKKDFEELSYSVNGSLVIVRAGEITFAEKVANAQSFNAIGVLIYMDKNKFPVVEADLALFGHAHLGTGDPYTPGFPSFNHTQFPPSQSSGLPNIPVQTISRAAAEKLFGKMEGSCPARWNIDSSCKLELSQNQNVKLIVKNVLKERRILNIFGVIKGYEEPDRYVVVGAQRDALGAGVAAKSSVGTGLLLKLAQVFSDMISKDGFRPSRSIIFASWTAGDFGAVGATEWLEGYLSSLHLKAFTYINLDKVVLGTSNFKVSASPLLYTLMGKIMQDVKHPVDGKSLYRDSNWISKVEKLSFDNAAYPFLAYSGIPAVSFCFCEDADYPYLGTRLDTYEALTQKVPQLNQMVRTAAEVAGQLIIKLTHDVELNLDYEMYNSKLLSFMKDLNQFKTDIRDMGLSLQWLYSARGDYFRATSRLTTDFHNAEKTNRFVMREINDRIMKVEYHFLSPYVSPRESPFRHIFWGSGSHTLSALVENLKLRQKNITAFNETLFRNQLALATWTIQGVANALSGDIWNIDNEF

T1 sequence (P02786 whole entry): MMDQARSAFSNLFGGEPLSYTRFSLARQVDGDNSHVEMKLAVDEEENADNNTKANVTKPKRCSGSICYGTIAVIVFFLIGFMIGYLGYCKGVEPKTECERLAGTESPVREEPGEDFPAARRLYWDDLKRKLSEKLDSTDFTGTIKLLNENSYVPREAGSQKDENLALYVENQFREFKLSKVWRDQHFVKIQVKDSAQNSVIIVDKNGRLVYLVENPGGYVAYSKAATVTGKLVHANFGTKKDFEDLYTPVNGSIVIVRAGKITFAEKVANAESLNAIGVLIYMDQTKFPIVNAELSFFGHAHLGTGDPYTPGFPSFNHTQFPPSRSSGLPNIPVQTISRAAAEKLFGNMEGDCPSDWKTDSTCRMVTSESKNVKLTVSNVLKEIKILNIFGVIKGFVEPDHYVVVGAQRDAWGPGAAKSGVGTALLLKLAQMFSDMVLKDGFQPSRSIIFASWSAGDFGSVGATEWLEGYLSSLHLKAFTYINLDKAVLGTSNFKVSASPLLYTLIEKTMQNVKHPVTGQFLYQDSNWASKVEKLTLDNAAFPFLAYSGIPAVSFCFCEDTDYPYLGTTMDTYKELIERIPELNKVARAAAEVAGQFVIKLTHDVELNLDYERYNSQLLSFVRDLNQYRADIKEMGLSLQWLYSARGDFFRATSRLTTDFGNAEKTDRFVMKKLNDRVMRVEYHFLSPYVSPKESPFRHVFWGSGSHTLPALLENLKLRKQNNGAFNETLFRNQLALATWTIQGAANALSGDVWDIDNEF

Kd [1]: ~3 nM
Kd [2]: 0.39 nM
Kd [3]: 0.51 nM
Bmax (MFI) [4]: 1820 MFI
Kd [4]: 1.53 nM
Kd [5]: 0.441 nM
Kd [6]: 0.81 nM
Kd [7]: 0.898 nM
Kd [8]: 5 nM
Kd [9]: 4.47 nM
Kd [10]: 0.84 nM
Kd [11]: 1.03 nM
Kd [12]: 0.3 nM
Kd [13]: 0.255 nM
Kd [14]: 0.14 nM
Kd [15]: 0.162 nM
Kd [16]: ~3 nM
binding result (recombinant mouse CD71): no binding
B1: Ab21.12 LcB:HcC (antibody, human IgG1, kappa)
heavy: not shown
light: DIQMTQSPSSLSASVGDRVTITCSASSSVYYMYWFQQKPGKAPKLWIYSTSNLASGVPSRFSGSGSGTDYTLTISSMQPEDFATYYCQQRRNYPYTFGQGTKLEIKRTVAAPSVFIFPPSDEQLKSGTASVVCLLNNFYPREAKVQWKVDNALQSGNSQESVTEQDSKDSTYSLSSTLTLSKADYEKHKVYACEVTHQGLSSPVTKSFNRGEC

— patent US20220306759A1 (CYTOMX THERAPEUTICS, published 2022)
